The values that follow come from the RNAGym collection of RNA variant scans (doi:10.7554/elife.90254).

Sequences and labels used below:
B1: LINE1-full (parent)
chain: UACGUAGGUGGUUUUCCCCUGAUAGUGCUAAGGGGGCCUGGAAGUUUGGACUGGGCAGAGCUCAACACAGCGUGGCAAAGUGGCUGUGGCUAGACUGCCUCUCUGGAUUCCUCGUCACUCAGCAGGGCAUCUCUGAGAGAAAUGCC

Variants of B1 are the subject of this series. Put plainly: self-cleavage, relative activity (ratio to wild type); higher = more cleavage; in vitro, sequencing; the parent is a self-cleaving ribozyme.
U23G A42G: the self-cleavage is 1.46. The same measure for A22U U26C: 1.18; for A24G A124U: 1.54. With U23C C113U, the self-cleavage stood at 0.88.

In the case of A22G U119A, the self-cleavage was found to be 2.19. Take A22G U119C: the self-cleavage is 1.43. For the variant A22G C113G, the self-cleavage worked out at 0.82. As to A22G C113U, the self-cleavage came out at 0.92. In the case of A24G U115A, the self-cleavage amounted to 1.45. Then A24C A140G, with 1.15; and A22G U132A, with 0.48. As to A22G U132C, the self-cleavage came out at 1.11.

In the case of A24G, the self-cleavage was determined as 1.17. The same measure for A24C: 1.62; for A22U A129U: 1.47; for U23C A64C: 0.29.

For the variant A22G U47A, the self-cleavage stood at 1.15. On to U23G U46A, for which the self-cleavage worked out at 1.3. Then A24G A30G, with 0.42; and U23C U109A, with 1.49. Regarding U23C U109C, the self-cleavage stood at 1.84. For the variant U23C C99U, the self-cleavage is 0.91. Turning to A22U U130C, the self-cleavage worked out at 1.35. Then A24G A65C, with 0.16; and U23A G105U, with 1.36; and A24G U29A, with 1.3.

U23C U26G: the self-cleavage stood at 1.45.

Take U23A A24G: the self-cleavage turned out to be 0.85. As for A24G A138G, the self-cleavage was determined as 1.07. Consider U23G U112C, for which the self-cleavage amounted to 1.07. Then A22U A64G, with 0.3. Then A24G U91C, with 0.81; and A22G G126A, with 1.74.

In the case of A24G G34U, the self-cleavage came to 0.21.

Take A24G U112C: the self-cleavage worked out at 1.41.

As to A24G U112A, the self-cleavage is 1.51. For U23A A79G, the self-cleavage is 1.31. With U23A U130A, the self-cleavage stood at 1.52.

Turning to U23A U130C, the self-cleavage is 1.44.

In the case of A24G A121U, the self-cleavage turned out to be 2.93. In the case of A24G A121C, the self-cleavage amounted to 2.3. The same measure for A24C G139A: 1.45; for A22U A57G: 0.84. Then A22U A57U, with 0.12; and U23A U134G, with 0.89.

Regarding A22U A67C, the self-cleavage is 0.05. The same measure for A24C G114A: 0.68; for U23A A138G: 0.76. Take U23G: the self-cleavage turned out to be 1.18.

Take U23C: the self-cleavage came to 1.3.

With U23A, the self-cleavage came to 1.3. Turning to A22G U112A, the self-cleavage was determined as 1.84.

With A22G U112C, the self-cleavage turned out to be 1.25.

With A22U C118U, the self-cleavage was found to be 1.47. As for U23C G114C, the self-cleavage was found to be 2.07.

Regarding A22U G83A, the self-cleavage is 0.82. Consider U23C G126A, for which the self-cleavage came out at 1.18. A24C C99A: the self-cleavage came out at 0.47. Then A24G G97A, with 0.17; and A22U A43U, with 1.43. The same measure for A22U C38A: 0.64.

As to A24C U91A, the self-cleavage is 0.57. The same measure for A24C U47C: 2.18; for U23G U115C: 1.29. Then A22U A65U, with 0.18; and A22G U96C, with 0.2; and A22U A50G, with 1.01.

With U23C G54A, the self-cleavage came to 0.51.

With U23A U81C, the self-cleavage stood at 0.86. The same measure for U23A U143A: 2.26; for A24G G126A: 1.09; for U23A C120A: 0.82. The same measure for U23C A117C: 1.51; for U23C A78G: 1.25; for U23C C56A: 0.07. Then U23A C118U, with 1.22; and A22U C99U, with 0.51; and A22U A92U, with 0.63. For the variant A22U A92G, the self-cleavage came to 0.05. Then U23C U143A, with 1.28; and A24G U109C, with 0.76; and U23C A94G, with 0.37. For the variant U23C G75C, the self-cleavage turned out to be 1.23. The same measure for U23A U45C: 0.71. A24G A92U: the self-cleavage is 1.34. The same measure for U23A A31U: 0.37; for U23A A31G: 0.93; for A24G A78U: 2.33. Then A24G A78G, with 1.19; and U23C U39A, with 1.2; and U23C U39C, with 0.87.

Turning to A22U G49A, the self-cleavage turned out to be 1.08.

For the variant A22G C128U, the self-cleavage was found to be 1.26. Then A24C A121G, with 2.59.

Consider A24G G122C, for which the self-cleavage amounted to 1.12. Then A22G G27A, with 1. With A24G U39A, the self-cleavage is 0.77. The same measure for U23A U85A: 0.08. Then U23A U39C, with 0.65; and A22G G106U, with 0.73.

Turning to A22G U85G, the self-cleavage was 0.45.

For A22G U85C, the self-cleavage was determined as 0.27. The same measure for U23C A65U: 0.09. The same measure for U23C A65G: 0.1. Then A22U U108A, with 1.08; and U23C U87A, with 0.06. With U23G U87A, the self-cleavage amounted to 0.11. On to A24G C128A, for which the self-cleavage stood at 0.65. On to A22G U130A, for which the self-cleavage was 1.52. Turning to A22G U130C, the self-cleavage was determined as 1.3. Then A24G A31G, with 0.72; and A24G U87C, with 0.19; and A24C A65U, with 0.

Regarding U23A U109A, the self-cleavage worked out at 1.33. The same measure for U23A U109C: 1.06. Turning to U23A A121G, the self-cleavage was 1.41. On to A22U U52C, for which the self-cleavage stood at 1.73. The same measure for U23C A136U: 1.19. Consider U23C G74A, for which the self-cleavage amounted to 0.99. Then A24G U26C, with 0.97. Take U23A C146U: the self-cleavage came to 1.27. Then A22G G80A, with 2.37; and U23C U132C, with 1.58. The same measure for U23C U132A: 1.86.

Turning to A22U U39A, the self-cleavage is 1.17. As for A22U U62C, the self-cleavage stood at 0.13. On to A22G G70A, for which the self-cleavage turned out to be 0.18. The same measure for U23A A64C: 0.48. Consider A22G G34U, for which the self-cleavage was 1.66.

A22G U73G: the self-cleavage was found to be 1.49. As for A22G U73C, the self-cleavage came out at 1.37.

With U23C A124U, the self-cleavage came to 1.22.

For U23C A124C, the self-cleavage was found to be 1.34. The same measure for U23C U96C: 0.21; for U23C U96A: 0.12. As for U23A A94G, the self-cleavage was 0.47. The same measure for A22G C98U: 0.64.

Consider A24G A42G, for which the self-cleavage stood at 1.11.

For the variant U23C A24G, the self-cleavage came out at 1.48. Then U23C U81C, with 1.41; and U23C U81A, with 1.85; and A24G A142G, with 1.1. Then U23C U115A, with 1.23; and U23C U115C, with 1.16. Consider A22G C145U, for which the self-cleavage was 0.97.

In the case of A22G G48U, the self-cleavage was 1.05. Then A24G A59G, with 0.21; and U23C C95U, with 0.22. Then A22U U112A, with 1.19; and A24G A117G, with 1.78; and U23A A67G, with 0.71. Then U23A A78G, with 1.14; and U23C U62A, with 0.06; and A24C A138G, with 0.88. Regarding U23C A30U, the self-cleavage worked out at 1.15. The same measure for U23C A30G: 0.89.

In the case of U23A A65G, the self-cleavage worked out at 0.1. The same measure for U23A U112C: 1.18; for A24G A69U: 0.21.

On to U23C C66U, for which the self-cleavage amounted to 0.05.

A24G G25U: the self-cleavage was 1.14. Turning to U23C G127C, the self-cleavage worked out at 1.12. The same measure for A22U U134A: 1.15; for U23C A142G: 1.61; for U23C U45C: 1.7. On to U23C U45G, for which the self-cleavage stood at 1.02. The same measure for U23C U45A: 1.25.
